The labels stand for the following.
B1: TPR t1 (parent)
chain: GACCAAUCUGCCCUCAGAGCUCGAGAACAUCUUCGGAUGCAGAGGAGGCAGGCUUCGGUGGCGCGAUAGCGCCAACGUCCUCAACCUCCAAUGCAUCCCACCACAUGAUGAUGCCUGAAGAGCCUUGGUUUUUUG

Variants of B1 are the subject of this data set. As to the kind of experiment: polymerase ribozyme fitness, log enrichment relative to wild type (log ratio); higher = more active; in vitro selection for triplet polymerase activity. Put shortly:
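For each subunit of a heterodimeric triplet polymerase ribozyme, a mutant library was built by PCR and transcribed, then taken through a single in vitro selection round in triplicate. Selection involved annealing to a biotinylated primer, the partner subunit and triplets, incubation frozen at −7 °C, gel excision of extended constructs, capture on streptavidin beads and RT-PCR. Genotypes were retained after Illumina sequencing of inputs and outputs only with ≥10 input reads and ≥1 read in each output. Fitness is defined as the logarithm of a genotype's enrichment relative to wild-type enrichment, using inverse-variance-weighted averages across replicates, with the logarithm taken to base 2.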
For GAAUAAUCUGCCCUCAGAGCUCGAGAACAUCUUCGGAUGCAGAGGAGGCAGGCUUCGGUGGCGCGAUAGCGUCAACGUCCUCAACCUCCAAUGCAUCCCACCACAUGAUGAUGCCUGAAGAGGCUUGGUUUUUUG [C3A C4U C72U C123G], the “polymerase ribozyme fitness (log ratio)” value is -0.302.

Consider GUCCAAUCUGCCCUCAGAGCUCGAGAACAUCUUCGGAUGCAGAGGAGGCAGGCUUCGGUGGCGCGAUAGCUCCCACGUCCUCAACCUCCAAUGCAUCCCACCACAUGAUGAUGCCUGAAGAGCCUUGGUUUUUUG [A2U G71U A74C], for which the “polymerase ribozyme fitness (log ratio)” value is -4.54.

Turning to GAACAAUCUGCCCUCAGAGCUCGAGAACUUCUUCGGAUGCAGAGGAGGCAGGCUUCGGUGGCGCGAUAGCGCCAACGUCCUCAACCUCCAAUGCAUCCCACCACAUGAUGAUGCCUGAAGAGCCUUGGUUUUUUG [C3A A29U], the “polymerase ribozyme fitness (log ratio)” value was -3.36.

GAACAAUCUGCCCUCAGAGCUCGAGAACAUCUUCGGAUGCAGAGGAGGCAGGCUUCGGUGGCGCGUUAUCGCCAACGUCCUCAACCUCCAAUGCAUCCCACCACAUGAUGAUGCCUGAAGAGCCUUGGUUUUUUG [C3A A66U G69U]: the “polymerase ribozyme fitness (log ratio)” value was -1.08.

GUCCAAUCUGCCCGCAGAGCUCGAGAACAUCUUCGGAUGCAGAGGAGGCAGGCUUCGGUGGCGCGAUAGCGCCAACGUCCUCAACCUCCAAUGCAUCCCACCACAGGAUGAUGCCUGAAAAGCGUUGGUUUUUUG [A2U U14G U106G G120A C124G]: the “polymerase ribozyme fitness (log ratio)” value is -3.26.

Turning to GAACCAUCUGCCCUCAGAGCUCGAGAACAUCUUCGGAUGCAGAGGAGACAGGCUUCGGUGGCGCGAUAGCGCCAACGUCCUCAACCUCCAAUGCAUCCCAACACAUGAUGAUGCCUGAAGAACCUUGGUUUUUUG [C3A A5C G48A C101A G122A], the “polymerase ribozyme fitness (log ratio)” value was -1.86.

With GUCCAAUCGGCCCUCAGAGCUCGAGAACAUCUUCGGAUGCAGAGGAUGCAGGCUUCGGUGGCGCGAUAGCGCCAACGUCCUCAACCUUCAAUGCAUCCCACCACAUGAUGAUACCUGAAGAGCCUUGGUUUUUUG [A2U U9G G47U C88U G113A], the “polymerase ribozyme fitness (log ratio)” value was -4.58.

For GUCCAAUCUGCCCUCAGAGCUCGAGAACAUCUUCGGAUGCAGAGGAGGCAGGCCUCGGUGGCGCGAUAGCGCCAACGUCCUCAACCUCCAAUGCAUCCCACCACAUGAUGAUGCAUGAAGAGCCUUGGUUUUUUG [A2U U54C C115A], the “polymerase ribozyme fitness (log ratio)” value is -2.65.

Consider GAACAAUCUGCCCUCAGCGCUCGAGAACAUCUUCGGAUGCAGAGGAGGCAGGCUUCGGUGGCGCGAUAGCGCCAACGUCCUCAACCUCCAAUGCAUCCCACCACAUGAUGACGCCUGAAGAGCCUUGGUCUUUUG [C3A A18C U112C U130C], for which the “polymerase ribozyme fitness (log ratio)” value was -0.927.

As to GUCCAAUCUGCCCUCAGAGCUCGAGAACAUCUUCGGAUGCAGAGGAGGCAGGCUUCGCUGGCGCGAUAGCGGCAACGUCCUCAACCUUCAAUGCAUCCCACCACAUGAUGAUGCCUGAAGAGCCUUGGUUUUUUG [A2U G58C C72G C88U], the “polymerase ribozyme fitness (log ratio)” value is -4.39.

In the case of GUCCAAUCUGCCCUCAGAGCUCGAGAACAUCUUCGGAUGCAGAGGAGGCAGGCUUCGGUGGCGCGAUAGCGCCAACGUCCUCAACCUCCAAUGCAUCCCACCACAUGAUGAUCCCUGAAGAGCCUUGGUUUUUUG [A2U G113C], the “polymerase ribozyme fitness (log ratio)” value is -3.73.

As to GUCCAAUCUGCCCUCAGAGCUCGAGAACAUCUUCGGAUGCAGAGGAGGCAGGCUUCGGUGGCGCGAUAGCGCCAACGUCCUCAACCUCCAAUGCAUCCCACCACAUGAUGAUUCCUGAAGAGCCUUGGUUUUUUG [A2U G113U], the “polymerase ribozyme fitness (log ratio)” value is -4.15.

Turning to GUCCAAUCUGCCCUCAGAGCUCGAGAACAUCUUCGGAUGCAGAGGAGGCAGGCUUCGGUAGCGCGAUAGCGCCAACGUCCUCAACCUCCAGUGCAUCCCACCACAUGAUGAUGCCUGAAGAGCUUUGGUUUUUUG [A2U G60A A91G C124U], the “polymerase ribozyme fitness (log ratio)” value is -3.61.

On to GUCCAAUCUGCCCUCAGAGCUCGAGAACAUCCUCGGAUGCAGAGGAGAGAGGCUUCGGUGGCGUGAUAGCGCCAACGUCCUCAACCUCCAAUGCAUCCCACCACAUGAUGAUGCCUGAAGAGCCUUGGUUUUUUG [A2U U32C G48A C49G C64U], for which the “polymerase ribozyme fitness (log ratio)” value was -3.23.

On to GAAGAAUCUACCCUCAGAGCUCGAGAACAUCUUCGGAUGCAGAGGAGGCAGGCUUCGGUGUCGCGAUAGCGCCCACGUCCUCAACCUCCAAUGCAUCCCACCACAUGAUGAUGCCUGAAGAGGCUUGGUUUUUUG [C3A C4G G10A G61U A74C C123G], for which the “polymerase ribozyme fitness (log ratio)” value was -4.94.

In the case of GUCCAAUCUGCCCUCAGAGCUCGAGAACAUCUUCGGAUGCAGAGGAGGCAGGCUUCGGUGGCGCGAUAGCGCCAACGUCCUCAACCUCCAAUGCAUCCCACCACAUGAUGAUGCCUGAACAGCCUUGGUUUUUUA [A2U G120C G135A], the “polymerase ribozyme fitness (log ratio)” value amounted to 0.456.

GUCCAAUCUGCCCUCAGAGCUCGAGAACAUCUUCGGAUGCAGAGGAGGCAGGCUUCGGUGACGCGAUAGCGCCAACGUCCUCAACCUCCAAUGCAUCCCACCACAUGAUGAUGCCUGAAGAGCCUUCGUUUUUUG [A2U G61A G127C]: the “polymerase ribozyme fitness (log ratio)” value is -1.88.

Turning to GAACAAUCUGCCCUCAGAGCUCGAGAACAUCUUCGGAUGCAGAGGUGGCUGGCUUCAGUGGCGCGAUAGCGCCAACGUCCUCAACCUCCAAUGCAUCCCACCACAUGAUGAUGCCUGAAGAGCCUUGGUUUUUUG [C3A A46U A50U G57A], the “polymerase ribozyme fitness (log ratio)” value is -4.95.

Turning to GUCCAAUCUGCCCUCAGAGCUCGAGAACAUCUUCGGAUGCAGAGGAGGCAGGCUUCGGUGGCGCGAUAGCGCCAACGUCCUCAACCUCCAAUGCAUCCCACCACAUGAUUAUGCCUGAAGAGCCUUGGUUUUUUG [A2U G110U], the “polymerase ribozyme fitness (log ratio)” value is -2.47.

With GUCCAAUCUGCCCUCAGAGCUCGAGAACAUCUUCGGAUGCAGAGGAGGCAGGCUUCGGUGGCGCGAUAGCGCCAACGUCCUCAACCUCCAAUCCAUCCCACCACAUGAUGAUGCCUGAAGAGCCUUGGUUUUUUG [A2U G93C], the “polymerase ribozyme fitness (log ratio)” value is -3.65.

GAACAAUCUGCCCUCAGAGCUCGAGAACAUCUUCGGAUGCAGAGGAGGCAGGCUUCGGUGGCGCGCUAGCGCCAACGUCCUCAACCUCCAAUGCAUCCCACCACAUGAUGAUGCCUGAAGAGCCUUGGUUUUUUG [C3A A66C]: the “polymerase ribozyme fitness (log ratio)” value is -2.64.

These data come from the RNAGym collection of RNA variant scans (doi:10.1073/pnas.2313332121).
